In publication PMC8629852 (Archives of biochemistry and biophysics, 2021):

Legend:
adrenodoxin = adrenodoxin (UniProt P00257); conditions: cited from earlier work
[1] = molecular target: adrenodoxin (Homo sapiens) (UniProt P10109); assay: microscale thermophoresis; conditions: cited from earlier work
cross-linking = molecular target: the molecule itself; assay: cross-linking

Molecule: AdR (from UniProt P08165)
- Kd (adrenodoxin): 70 nM

Molecule: P450 27C1 (from UniProt Q4G0S4)
- Kd [1]: 220 nM

B1: Human adrenodoxin (Adx), unlabeled (natural protein, UniProt P10109 61-184, looked up)
chain: SSSEDKITVHFINRDGETLTTKGKVGDSLLDVVVENNLDIDGFGACEGTLACSTCHLIFEDHIYEKLDAITDEENDMLDLAYGLTDRSRLGCQICLTKSMDNMTVRVPETVADARQSIDVGKTS
- stoichiometry N (cross-linking): 2
